# Paper PMC10699790
# Target: HA-Halo-mGluR3 (rat), P31422
# Test: single-molecule pulldown
# Details: remark: other sources report otherwise
binder,measurement,value
"HA-Halo-mGluR3, P31422 23-879 (receptor, here or on the partner: Halo tag labeled with CA-SS-Alexa-488; Halo tag labeled with CA-SS-Alexa-488) LGDHNFMRREIKIEGDLVLGGLFPINEKGTGTEECGRINEDRGIQRLEAMLFAIDEINKDNYLLPGVKLGVHILDTCSRDTYALEQSLEFVRASLTKVDEAEYMCPDGSYAIQENIPLLIAGVIGGSYSSVSIQVANLLRLFQIPQISYASTSAKLSDKSRYDYFARTVPPDFYQAKAMAEILRFFNWTYVSTVASEGDYGETGIEAFEQEARLRNICIATAEKVGRSNIRKSYDSVIRELLQKPNARVVVLFMRSDDSRELIAAANRVNASFTWVASDGWGAQESIVKGSEHVAYGAITLELASHPVRQFDRYFQSLNPYNNHRNPWFRDFWEQKFQCSLQNKRNHRQVCDKHLAIDSSNYEQESKIMFVVNAVYAMAHALHKMQRTLCPNTTKLCDAMKILDGKKLYKEYLLKINFTAPFNPNKGADSIVKFDTFGDGMGRYNVFNLQQTGGKYSYLKVGHWAETLSLDVDSIHWSRNSVPTSQCSDPCAPNEMKNMQPGDVCCWICIPCEPYEYLVDEFTCMDCGPGQWPTADLSGCYNLPEDYIKWEDAWAIGPVTIACLGFLCTCIVITVFIKHNNTPLVKASGRELCYILLFGVSLSYCMTFFFIAKPSPVICALRRLGLGTSFAICYSALLTKTNCIARIFDGVKNGAQRPKFISPSSQVFICLGLILVQIVMVSVWLILETPGTRRYTLPEKRETVILKCNVKDSSMLISLTYDVVLVILCTVYAFKTRKCPENFNEAKFIGFTMYTTCIIWLAFLPIFYVTSSDYRVQTTTMCISVSLSGFVVLGCLFAPKVHIVLFQPQKNVVTHRLHLNRFSVSGTATTYSQSSASTYVPTVCNGREVLDSTTSSL",stoichiometry N,2
